Assay results: the DeepSol protein solubility set

test: soluble on expression in E. coli; label from the status in PepcDB or PDB records

Sequence	soluble on expression in E. coli
MVAGFTVHSGPHHVPHRDMTHHSRPPGHAPRVTILMPVYNGEKYLAAAMESILDQTFRDFILLIIDDGSSDSSLAIARSFGDPRVQVERNPKNLGLVKTLNRGLDLVQTEFVARMDCDDIALPDRLEKQIAFLDENPDIGMCGTAYELFHESLRQTIRPPCRHEEIVYGLLDDNVFLHSSVIVRMEVLNRHGLRYREDYRLAEDYELWARLARYTHIGNLPQVLVRYRSHPENVSNTNKGEQIATRDRVRLEHLESFGLAPAADQKTLHIDLFSLAFQGSPDQLADARRWLEALARAVSTRCGLPLGRLHRDFALLWYSACGRSAHHGLTVLFSYLKSAMAWKGPKSYILKLLFRCLMRDPIPAVTK	not soluble
SQFKWSDFRILDRVSIGHGGRADELVFEAIVQVPDSPLFNQGVVLRKLNTTRAQRRGRRAIEVFKKLVRRRLLYHSYSMQVHGYITNNLSDDQYSFTLVHGCHGSFSIRHWLQQSDWIPTLEATLALDEESFRRVGDDTTGGPAVSRQLRLIRTLMRDILIGVNYLHSHGLAHTELRLENVHISPVDRHIKVGILGNAADFNGDVPSTSNAYSTMDRRQMMIAFDMRCVGFMMAKMVLQELMDPLIFAKLKSFLAKGNDPSSLREFFVTTLNTNSESGNTGVQILDRNWGAGWHLLSLLIATRPSERISCLDALKHPFLCGPRWRVAPSMDIIRWGLGSTAVKISEEYIYRMPQRQRLAHFIGLMEMLNPYPKPNCWLELLPGRWRLLYSTGKHIGLTLRQPSTRALIGNVHLTITRASESINNTSLSFTSDIRFTAITSKDWPHNKIGAAGKLQTLSQFRLIAGKRLYLKEEKKNIGKFSMGEPDAEEGLAEKLETEKWKKVVPFKEFPSSLPVAKLVSGEIEVTMNMNDHIDSPGSVIGEVRKQIPPEMFDLSKLVCGTYIDSRLLVLRCVNGSALLFTRSSLDHKSM	soluble
MSLSGPRNQILVSITDAPKIHILDPSTEYCVGDYVAYQLNGVAPFMIKYEFNGIPLKSKERSSQFVRLASEPGIISITSLQDSSSQCIVDFTNPKLKSEFDDLSLNIHPIPSVTVSQGNYVTEDIREGDQAEVIFSFEGTPPFSLTYVRTEETDGKHGKRRSQVVETHKVTDIYSHEYKVITSLQGTYEAIEITDAYCFAKNDLFFNNEGHHHHHH	soluble
GLGNVDETLEIKQLLNIYRDLQLGHFCAFYQPQKHIDSGGVVAFEALARRVIGKGLYEMPDRFFPILEKYHLIPTLTEVMVRDILTFLMTEDAVLQDITIGVNIPGKMLTDGSFYRLLLSVAEEKQAQHALHRLSVEITEHDLIADFDAAKHEIYKLKSLGIRCALDDFGTGYSGYEYLCEIPFDVVKIDGRYIQSLGKAESSTVILQSMISSIKSLSMQVIAEWVDSDQQYQILQEMGCDLVQGYLVSPA	not soluble
MGSDKIHHHHHHMEKGSIKILGEGFISSGEYENIKIVGSSKSKGNVKSNEVKVLGDAKFEGDINIKNFVVNGKTIIRGNLKAERVRVNGQLNIEGDAEIDDLVITAQQKVDGKLKCNNVTIRGQLSVNENMYAQDIKIYGEMRNKSNIECEDIKVYGVIKCDGLLNGENIYVYSGGGSYCKEIGATNIKIGRSKDAFSLIKIINIFSGKFKCNLIEGDTIELEDASIKDIRGKSISLVDNCDVGNIEYSDNLSVSDNSTVKNSIKVG	not soluble
TESVYITTPYLIIDYDLTETIKNAAMRGVDVRIITPYIPDKKFIQLVTRGAYPDLLSAGVRIYEYSPGFIHSKQMLVDEDFAVVGTINLDYRSLVHHYENAVLLYKTPSIREIARDFRNIFADSQEVYPHSIKT	not soluble
MTRNPVVAGMFYPAEYHELLEMIEYCYLNPRGPRELPSKRGKYTKPLGIVSPHAGYIYSGPVAAHGYKKISENISGEITAIILGPNHTGLGSGIATMKGTWKTPFGDMEIDNEFADRLWKECDILDMDENSHLREHSIEVQLPFLKHLEDLNIAKFKFVPISMMMQDYESCIDVGYVIAKVARELNRKIVIIASTDFSHYEPQEQASKKDAVVIKDILELNDEEIFTDVVTHTISMCGYGPVIAMVKAMKDLGARTSYLLYYSTSGDVTKDYSEVVGYASLLIKLEHHHHHH	soluble
MVVSIIPQFPDIKVSLALFEQVKNAKEIRSKMSELSTSFAFIDPRLVCSGEQMYSAIYKTLIEVKYNKMRTRNLNSECVLCLSPTSNISDAFLKFGIKDDSSQLICLKFHTNTDDVDKEQLRTIMTSIVKGQEIEFNDDNLSRFYDEALIRKVCFNNKFEVKTSTASPETHCTNFTFVFLLFCFYLLDL	not soluble
MKIFTVCQSGLGTSFMVQMNIQQILEEVGVDTDNFQIDHTDVGSASGDMADYFFVEKTLQDALGSIPAEKIIPLNAIIDYDETKEKVLKVLDDNGIAHQ	not soluble
MGSDKIHHHHHHMYDVLIIGAGPAGSSLARLIGDKYKVLLIDKRDLANENPHNLAGKCCGGLLAPDAQKMIAKLGLGIPKDILVNPQLFAVRTIDLTNNLERLYQRFYLNMDREKFDRWLVSILPKKVDKKFNAVFKDFVEIPGGYEVKYIHNGQEISAKTRVIIGADGAFSKLRRFLNQDINGPEKYIAIQEWYECPHHVPYFTAIFDEEISDFYSWIIPKENYLLLGSALKPKEKAREKYELLKTKLTQRGFNFDNKIRTEGAYLYRPKKVSQFYAGRDSIALVGEAAGGISPSSAEGISYALKSSAYLAQSLEEGIDGFLDRYKLKVKGIKLNLLLKNLKSPAMYNPLLRQLAMKSGLQSIDRTE	not soluble
MGSDKIHHHHHHMNILFVAPYTPSPIRVRPYQFIRHLARRGHTITLVCVADNEAALAELRTICRRVVAVPTRTGDHVLAYIRALPTRLPLQAAHCLTPAMITAVTREIQSGDHDVIHIEHLRAAEIGLAALHQSGGGLPVVLDAVDSISLLFERTFRRSSSLSGRLRALIDLARTRHYEATYPHRFAAVVVTSPEDRWALMTLNQTLSHPGHNPLVVAPNGVDLEYFQPHTGPRHPASLVFTGKMSYHANEAAARYLVEAIMPRVWAVRPEVTVTLAGAEPGAHIRAYAHDPRITVTGAVPDLRPYLTQATIAVAPIRYGVGVQNKVLEAMATATPVITARQATVALSVQPGHDLIVADDAAEFAQAILNLLADPERRDRLGQAGRMYVERHHHWQQSVTCLESVYRAVTTPVYTH	not soluble
MTNGFPILRLPSKPLRSILQTMKFVELVSISFTSKVAKRHVKALNMKVSYINMFLSRLTIRLVVNFNGTLPLNFRIPDRNVSEPRKLNKKLNYMKVKEGPIFEETEVFEWKPSGIRFKEIANHVLEIFHKSEFSTLMISHDYDYKTMLQELKDFKIRKLCISSDRIQNSELRRNLLEKYSRQFRELALDYHSLKPQEFHLIVSISYNNCYLYKVPMKLEDLLVSNIFLMCIDKPCPLKQLCLFLKHWINGSNDRLEYLEMNLPANSTKTQFISIALNGIDYQLASTDKEWESANNGLIKTTVVKTGGFDIRQNDGTIATVTVDETFQKLRMFVWK	not soluble
WTVNPYRGCTHACVYCFARKTHSYLDLDTGLGFDSQIVVKINAPDLLRRQLASRRWHGEHVAMGTNVDCYQRAEGRYQLMPGIIAALRDHANPFSILTKGTLILRDLDLLEQAAEVTDVGISVSVGFTDHELWRTVEPGTPAPERRLDVVRTLSEHGIGCGVLMAPVIPFLSDQPAQLRATVRAIAAAGATSVTPLVLHLRPGAREWFMAWLEHHHPYLVRRYERLYAEGAYAPKWYQRRITRQVHELAQEYGIGPTRAGMPRRIPEPEPETPPTPEPTQLTLL	not soluble
MLQNQYVREMRKYGVRGLRYDAAKHSKHEQIERSITPPLKNYNERLHNTNLFNPKYHEKAVMNYMEYLVTCQLDEEQMSSLLYERDDLSAIDFSLLMKTIKAFSFGGDLQTLASKPSSTISSIPSKRRILININHDFPNNGNLFNDFLFNHQQDEQLAMAYMAALPFSRPLVYWDGQVLKSTTEIKNYDGSTRVGGEAWLNKGCSTYQQLYNEFHALYIDKAGIWSAFEGVFATKNVLAFSRGDSVNINHSPHDGLVIINKGNEEVEGAWPNKLQPGKYKNMGSNSVNIIINNTRKIIPPGKAFMLRGGTLNINIPGRSALLLGKTGEPLNYLYL	not soluble
MAHHHHHHMELLTSVFQRHPPALRLHRELTIALADGDSARAADLASVLATTVQRVVAAEADSSDAATPPEGHANTGHFSQRDIPVAGLEDVEEAVEKTRQTLLREATVRVSSGVARDTGGSAISSEPAAAERSLPFWRDPERLCVTILESMFETEVLGGESQDTLTAAGNRAAEHEAEQVRILDAYLDKEGARWNAQKAAIAKIVLDVTRSLGLTPEDLQAFEGISASAGAGAAAAAGERKLNVLRHSNLVIRGEMPSAPLSSTASECVAEGVETELRALEERMSSLGQPLTPWEVRMARYELQMSKSKMRYVVGVHKELQLALDHSAALRASLREKSTAEVTFTTGTEVFMAEVIRALNEGADAYSANVTAEGAQLTVSNVKAREAVESPVLPFTFMLKGSLWFTTAPSRPPSSSSD	soluble
MLDVEVEEKAGPKGKHNKDRTVYSYGTEKTSVVLDGRKVKIERPRLCVYKIRKLTLKDSNSFSRRTR	not soluble
MTSIDVTEIIKSSTSSLYQPARKKSRFDDSASSSSQAGQPKPEDILAALEADQSNYVALDDVQVKKLVIQLDKKMRLNREQRVKNPDDAQKFMESEIELDKAIQEMHSLASQPDLYGSFVEVNGVEILLQLLGHENTDIVCATLSLLRELTDDDVMNEGEDGAAELIESLVSGSIITTLLACVERLDESVKDEADGVHNALGVVDNMIGFRDDITEECVKHGFTVWLLKRCFQKGAFDANKMYASELLSVILQTSDTAKAKLTEKIDGIDILLRTIAVYKKNDPANVDEREYMENLFNSLCAALMHPANRKKFLDGEGLQLMNLMLREKKQARQSALKVLNHATSGDEGIENCNKLVEMLGLRTIFPLFMRTPSKTKRKDTTPDEHEEHVCTILSSLLAACSENHRQRIVQKFVEHEHEKVDRAVELFLKYKEKVQRFELKKKRQSQEAGTSEDDDPDRAYLDKLDNGLYTLQRLTLILGEVAVGVESARLREEKLFQMKMSQNRLDLMLCPIIQEYSDNLGDDANIEQERVLVMLSKIEDFYK	not soluble
MQLNETAVGEKVRISELKIENAMLKRRLLALGCDEGCDICIKQKGLFGGPCTFETKGQYISIRQCDACAIMVERRLEHHHHHH	not soluble
MQNEKLDHESVTQAMQPKDTPELRALYKSFEEESIIPLWTQLGDLMPIHPKSKAVPHVWKWSTLLRLARKSGELVPVGRGGERRALGLANPGLGGNAYISPTMWAGIQYLGPRETAPEHRHSQNAFRFVVEGEGVWTVVNGDPVRMSRGDLLLTPGWCFHGHMNDTDQPMAWIDGLDIPFSQQMDVGFFEFGSDRVTDYATPNFSRGERLWCHPGLRPLSGLQNTVASPIGAYRWEFTDRALTEQLLLEDEGQPATVAPGHAAIRYVNPTTGGDVMPTLRCEFHRLRAGTETATRNEVGSTVFQVFEGAGAVVMNGETTKLEKGDMFVVPSWVPWSLQAETQFDLFRFSDAPIMEALSFMRTKIEGQK	soluble
ADPEKSYAEGPGLDGGECFQPSKFKIHAVDPDGVHRTDGGDGFVVTIEGPAPVDPVMVDNGDGTYDVEFEPKEAGDYVINLTLDGDNVNGFPKTVTVKPA	soluble
MSLTISTQCSKCEKIYDDNKRKICSGKCGHSICESCFDRKSSDICSICNQIDSFGVKCINRSAMEMVEMKKNAFSFSDIWIFKFDPKEHFNGPCSKCNDYSTMLRVCTNSAVQAGLLVKTGENSFDLTPHTTDELLETIILRIKSIGICADCVINNGLKEDVVMMKNIKRLYDIAKALNYLSMFSFSMKQIEREIEEFKNKKNQLRFYNMYYHFVKETYPEIMKWLKNDLVRISAPPCWQVLLKIVSIMTQAAQSLFLKSAERELQISKEKLRDSKGNSEWQKTVDKLENFRDFLEINHVDAEIQPIDMWNFFVLCTTEELDKVTAIINRNLKIQGKSSRETLKEVYYLTRDVRKTLPFQIPERFAGFIDRFIRVLVGENLDEEQALEIQSTT	not soluble
